# The DeepSol protein solubility set
# Test: soluble on expression in E. coli; label from the status in PepcDB or PDB records
row,Sequence,soluble on expression in E. coli
1,MGSDKIHHHHHHMNRQVIEFSKYNPSGNMTILVHSKHDASEYASIANQLMAATHVCCEQVGFIESTQNDDGNDFHLVMSGNEFCGNATMSYIHHLQESHLLKDQQFKVKVSGCSDLVQCAIHDCQYYEVQMPQAHRVVPTTINMGNHSWKALEIIYETYVHYVIPVKQVTTEIQHLVEAFVREQQWSHKYKTVGMMLFDEQRQFLQPLIYIPEIQSLIWENSCGSGTASIGVFNNYQRNDACKDFTVHQPGGSILVTSKRCHQLGYQTSIKGQVTTVATGKAYIE,not soluble
2,MGSDKIHHHHHHMNRRDFLKSALITGAALGLPAGMDPLLTVLKAAERPDLAVVRGTPPAAITRAAIDSLGGMKRFVSRGDVVVVKPNIGWDRTPEYAANTNPEVVGAVVRLCFEAGAKQVKVFDRPVNDPRRTYRQSGIAAAASALGASVLFTDSRKFKDMRINGSSLKSWPLYTEVFEADKVINIPIAKTHGTSKLTLGMKNWMGVMGGWRGRIHQRIDESLVDLATFIKPTLTILDAVRILTDNGPQGGNLADVRRLNMVIAGTDAVAVDAFGATLFGMKPAELGFVRIGHQRRLGSMDLAGMNIRRITL,not soluble
3,MGSDKIHHHHHHMNRSTRSHKAIVIFSGGQDSTTCLFQAIQEFKRENVEVITFQYGQRHSIELEKAAWIAQNLGIKQTVIDTSVIKAITTNALITEATIKQDGDKPNTFVDGRNALFLLYTAIYAKGQGIQTIFTGVCETDFSGYPDCRDIFIKSMNVTLNLAMDYNFNIRTPLMYLTKKQTWALADQLGAFEYVREHTHTCYLGVEGGCHTCPSCLLREKGLNEYLAEKSGEKNV,not soluble
4,MGSDKIHHHHHHMNSALYVGKVRHRRFTPVTHRFDYALFMALIDLDEIPALPHAGIALERFAPASFYRGDYLGGGDIKTKAQDRIAELTGERLTGKVLLLCQLRYLGCYFNPVNFYYLYDEHNQLRWLLAEVRNTPWNERHTYAVVPDGSTTVSKAFHVSPFNPMDMVYHWRLTPPVERLRIHIENHRQGREFDATLLLHRQPLTRAALRKQLWSLPLMTIKIACTIYWQALKLWIKRSPVYPHPQSGRKDNP,not soluble
5,MGSDKIHHHHHHMNSGPVSVACAQGSHGGDVVRLAARLGISPTDILDFSSNANSLCDDLTRQVLAQTGYAHSHYPDSECTGLRHRIAGFEETQPERILAGNGSSELIYLAMHSLKPRRVLLIAPVFSEYVRACQACGADYRLFETDPYDGFDIPERHICRLHDAVTAYRPDMAVICAPSNPACTDYSRMDDILYALDCPHVLVDNSYLDFLWGTPAYSRHGMAAYAGCTRTETKVISLRSMTKFFYCTGVRLGYCHADEQTIERMNRCKTPWSVWHAAQQAGMAFLDRMDEYRLRLPAMRAEKTAFAGALRNTGIFDNNLVLEGANFVTARLQRPAKAATVYTELLQHGILVRLCDNIPGMPQGFIRMQVREKKAWSRLTAILGTLDAE,not soluble
6,MGSDKIHHHHHHMNSLLASIDSSRAMPVLEDITQHEISALKTRFNLADAHTHQDQSDTQRMIVASLPELWYQAQNQTQYQSEQAFIRAFFTFHGQHHALKRHDEIYLVYAASIAMHITATYLRKNTLSVGLIEPCFDNLHDLLKHMEVPMSPLDESLFSSSSEVYANLQKAAIGLDAIFLVDPNNPTGSSLFADGPDTFVEVARYCRDYNKLLILDFCFASFFMAAGRERVDAYAILDDIGTRYLIMEDTGKTWPLQDTKCATLMASKDINAEIYSIVTSVLLNVSPFILNVVTRYIEDSNDDDFNSVRSVLEVNRRRARDCLEGKVLKYMQPMIDTSVAWFEILPAGIDADELQTYLLQWDVYVLPGKYFYWSQPEKGQRYIRLALARKPEEFDAAVQMIAHALEHFHV,not soluble
7,MGSDKIHHHHHHMNSLQFPRHGDKENSAFFEEYLVKLLEERDAMGLTAMVHEIDALMITVDPGHSVKYVAELCFMTSYHYLVTLESESHWTHVLRIDLDSPDLLVREVKDPNLRGIFRSLNEIYPVGARKPNSRYMGEIIRVNNLHDVVKLQQEREFRFFTQDEVRKLELPGNLAVSKPSPYTHNIVAYLERKPDEMRVYSLGVSRVDAELQMAYEAAKRLQEKLNFADLLLPIDHLATRVYSQNREVAILEYLSWSSYYFWGAYNIFDQNSSTNVTKSAHGLPESKSPAKVFTANNTPYFVNHLEKLPSPTETFVRNYGPRLHHIAVAVRDGERDGLEHIEFAVNAIASQGKGFLLDVIGSREEGLKQIFSNASEHSSLIVEYVQRFGDFQGFFTKENVAVLTEAAGREEGVKSGASLG,not soluble
8,MGSDKIHHHHHHMNSNPFVSVVMSVYNGGEFLKDAINSILSQSYKNFEFIIINDGSSDNFSEILELYDDERIKVLNNQENKGLVYSLNRGLLESIGKYIVRMDADDISLPNRIEKQVEFMEREPEVGVCGSYIEIFGDTIKRKVQRFPSNVNVNEAFLLFSTCLAHPSVIIRKSIVDKYKLRYDDRYLHAEDYAIWCQAVKYTKISNIREVLLKYRILESSVTRQANKNFQSRFDVHKSIYKDIFRNKGIDYTEKELYLHFIISDNNRFRNQALTIRPSEINAHLTKILSHYRGASNYKYIAFLVNKRGLSLSRWYSESRGFYFIMYLFKFLYYKIQIKK,not soluble
9,MGSDKIHHHHHHMNTIHSCVLQIHLTIETKMADTKAIQQLDLNLLKIFEALYSEQNMTLASKSLFITPSAVSHAIKRLRLVLNDPLFVRQGLQMQPTAACQRMAPQLISALNRIRQVLQQCGEFDPLTTEQTFKIAIHEALESQIMPTLIKQVVKLIPHAKIASMSLSRENIARQLANGEVDLAIDVARAVNAPLAHKTLLSDPFCVLIDRRQHAMHLEPSTKLTPTDYANAEHVAVSSRPIGRVMEDILLQQQGVNRHIKYRCQSYQTAAKIVIGSPLMLTLPRSIAEQFIHPDLHVCTMPFELPDIDTHLYWHMNTETDPAFVWLRAQIEMAIIAE,not soluble
10,MGSDKIHHHHHHMNTLLKQLKPYPFARLHEAMQGISAPEGMEAVPLHIGEPKHPTPKVITDALTASLHELEKYPLTAGLPELRQACANWLKRRYDGLTVDADNEILPVLGSREALFSFVQTVLNPVSDGIKPAIVSPNPFYQIYEGATLLGGGEIHFANCPAPSFNPDWRSISEEVWKRTKLVFVCSPNNPSGSVLDLDGWKEVFDLQDKYGFIIASDECYSEIYFDGNKPLGCLQAAAQLGRSRQKLLMFTSLSKRSNVPGLRSGFVAGDAELLKNFLLYRTYHGSAMSIPVQRASIAAWDDEQHVIDNRRLYQEKFERVIPILQQVFDVKLPDASFYIWLKVPDGDDLAFARNLWQKAAIQVLPGRFLARDTEQGNPGEGYVRIALVADVATCVKAAEDIVSLYR,not soluble
11,MGSDKIHHHHHHMNTNTSITIQKPKTDELLLWNLLFADTGRQVLLVAYDIKLFPLLSQKPCTLAEICNELKIFQRPAEAILAVLASIELLEIENNYYSLTLLAKDYLVKSSPTYFGALLEMMIFDERKHISSFDSLKKSLFTNNYPGKKVMESLVKNHDFMRTITFGNNVKLIRGFISSMHGPSMAAALIWPELIDLSEYKLFIDIGGGSAAHSIGATLKWPNLQAVVLELPTVCEIAQEFITHYGLQNRIATQEFDMWSDTFPVGDLHFYSAVYHHWQQEKCQVITKKSFNSLLPGGRIILHEMLFNEQKTGPFPVAAKNLNISLKLGGQQYSGQELSMMLEQAGFIDIEIKPASSYWSIITGRKP,not soluble
12,MGSDKIHHHHHHMNTVTIIGCGWFGLPLATQLVKQGIKVKASKRHPEDLVQLQQAGVDAYQLNLANVNSQAKNSSLFDADAIVINLPPGLRRGETDYLGYLTQLITLMGEHQYQKIIFISTTGVYPSLDQTVTEQDAAAFNDTSRTLLQAEAMFSAMKNSCIVRFSGLVGPKRHPGRFFAGKTDVSGANVAVNLVHLDDCIAAVSLILSRNDTLPIYNLAANAHPTRGEFYVAAAEHLGLTAPEFNQQQQPNKTIDGQLICHHLGFTYAFNNPFKMLDAC,not soluble
13,MGSDKIHHHHHHMNTYFDNATSSYPKPDAMRQALAYFYDVPVGSYGRSRDRETLRVTSEVEELRDALADLIGVSESAHICFADNATTGINTILRGSLQAGCSVLVSPMEHNAVMRPLQCLADTIGLKIALMPSMPDGRVDTDRLVSAIPTDTALAVVNLESNVNGLVQPIEEIARLLTQERGIPILADATQYLGTSRLKADELGLAYVAFTGHKGLLGPSGTGGFYIRDPRSVHPLTTGGNGLHSADWTVGVEMPERFMAGTVNVLGLTALLASVRQLPPFRISRDAWKQCMQQMQRFPGLRVYGAADPIEQGYLCSLTHDRLTPARIGDALYEAFDIVTRTGIHCAPLAHRSIGTFATGTVRLSLSPYHEEADLEYLLNALSHVLRS,not soluble
